To fix the notation:
B1: Azoarcus group I ribozyme (parent)
chain: GUGCCUUGCGCCGGGAAACCACGCAAGGGAUGGUGUCAAAUUCGGCGAAACCUAAGCGCCCGCCCGGGCGUAUGGCAACGCCGAGCCAAGCUUCGGCGCCUGCGCCGAUGAAGGUGUAGAGACUAGACGGCACCCACCUAAGGCAAACGCUAUGGUGAAGGCAUAGUCCAGGGAGUGGCGAAAGUCACACAAACCGG

The data set covers variants of B1. Kind of data set: reverse-splicing fitness (ratio to wild type); higher = more active; in vitro selection; Mg2+ level not given. An outline of the steps: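 An in vitro group I ribozyme library with randomized positions was T7-transcribed and gel-purified. In triplicate, 10 pmol RNA in EPPS pH 7.5 was reacted with 50 pmoles of a 30-nt RNA substrate for 1 h at 37 °C across several added MgCl2 levels (1–48 mM), then stopped with EDTA. Products were reverse transcribed from a substrate-complementary primer, PCR-amplified and sequenced (HiSeq 4000). Fitness is a variant's read proportion after selection over that before, normalised to wild type.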
On to C82A A111G A120U U176A, for which the reverse-splicing fitness was 0.0096. As to C82A A111G A120U A145G C150G C169U, the reverse-splicing fitness stood at 0.00766.

C82A A111G A120U A145G C150G C169A: the reverse-splicing fitness was 0.00837.

As to C82A A111G A120U A145G C150G C169G, the reverse-splicing fitness is 0.00653. For C82A A111G A120U C150U C169A U176C, the reverse-splicing fitness worked out at 0.00346. On to C82A A111G A120U C150U C169A U176A, for which the reverse-splicing fitness amounted to 0.00534. For C82A A111G A120U C150U C169A U176G, the reverse-splicing fitness was 0.00235.

C82A A111G A120U A145U C150G C169G U176A: the reverse-splicing fitness is 0.00352. On to C82A A111G A120U A145U C150G C169G U176C, for which the reverse-splicing fitness was 0.00281. Take C82A A111G A120U A145U C150G C169G U176G: the reverse-splicing fitness came to 0.00259. Turning to C82A A111G A120U C150U C169G U176C, the reverse-splicing fitness amounted to 0.00437. Turning to C82A A111G A120U C150U C169G U176A, the reverse-splicing fitness is 0.00869. For the variant C82A A111G A120U C150U C169G U176G, the reverse-splicing fitness was determined as 0.00175. On to C82A A111G A145G C150G, for which the reverse-splicing fitness came out at 0.0329. Turning to C82A A111G A145G C150A, the reverse-splicing fitness amounted to 0.0514.

With C82A A111G A145G C150U, the reverse-splicing fitness was determined as 0.32. The same measure for C82A A111G A120U A145G C169U: 0.00421. Then C82A A111G A120U A145G C169G, with 0.00402; and C82A A111G A120U A145G C169A, with 0.00307; and C82A A111G A120U A145G C169A U176G, with 0.002. In the case of C82A A111G A120U A145G C169A U176C, the reverse-splicing fitness amounted to 0.00333. Consider C82A A111G A120U A145G C169A U176A, for which the reverse-splicing fitness was found to be 0.0033. Regarding C82A A111G A120U C150U C169U U176A, the reverse-splicing fitness came to 0.00475.

For the variant C82A A111G A120U C150U C169U U176G, the reverse-splicing fitness came out at 0.00221.

Take C82A A111G A120U C150U C169U U176C: the reverse-splicing fitness was determined as 0.00428.

In the case of C82A A111G A145C C150U C169G U176G, the reverse-splicing fitness worked out at 0.00676. As for C82A A111G A145C C150U C169G U176C, the reverse-splicing fitness was determined as 0.0114.

Consider C82A A111G A145C C150U C169G U176A, for which the reverse-splicing fitness is 0.0215. Take C82A A111G A145C: the reverse-splicing fitness was 0.41. In the case of C82A A111G A145U, the reverse-splicing fitness was 0.431.

Regarding C82A A111G A145G, the reverse-splicing fitness came to 0.419. As to C82A A111G A120U A145U C169A U176G, the reverse-splicing fitness was 0.00145. For C82A A111G A120U A145U C169A U176A, the reverse-splicing fitness worked out at 0.00218. Then C82A A111G A120U A145U C169A U176C, with 0.00249; and C82A A111G A120U A145G C150A C169U U176G, with 0.00288.

Take C82A A111G A120U A145G C150A C169U U176C: the reverse-splicing fitness is 0.00493. Regarding C82A A111G A120U A145G C150A C169U U176A, the reverse-splicing fitness was 0.0049. As to C82A A111G A145G C150G U176A, the reverse-splicing fitness is 0.00955.

C82A A111G A145G C150G U176C: the reverse-splicing fitness turned out to be 0.0188.

For the variant C82A A111G A145G C150G U176G, the reverse-splicing fitness amounted to 0.00721. As for C82A A111G A120U A145G C150A C169A U176G, the reverse-splicing fitness was determined as 0.00291. On to C82A A111G A120U A145G C150A C169A U176C, for which the reverse-splicing fitness came out at 0.0046. On to C82A A111G A120U A145G C150A C169A U176A, for which the reverse-splicing fitness stood at 0.00865.

For C82A A111G A145G C150A C169U U176A, the reverse-splicing fitness was 0.0159. The same measure for C82A A111G A145G C150A C169U U176G: 0.00672; for C82A A111G A145G C150A C169U U176C: 0.0164.

Take C82A A111G A145C C150U: the reverse-splicing fitness was 0.0851. C82A A111G A145C C150A: the reverse-splicing fitness is 0.018. With C82A A111G A145C C150G, the reverse-splicing fitness was found to be 0.0325. The same measure for C82A A111G A145C C150A C169G: 0.00918; for C82A A111G A145C C150A C169U: 0.0104; for C82A A111G A145C C150A C169A: 0.00955.

C82A A111G A120U C169U U176A: the reverse-splicing fitness is 0.00447.

Turning to C82A A111G A120U C169U U176C, the reverse-splicing fitness was 0.00427.

With C82A A111G A120U C169U U176G, the reverse-splicing fitness worked out at 0.00235. Turning to C82A A111G A120U C150A C169G, the reverse-splicing fitness turned out to be 0.00463.

C82A A111G A120U C150A C169U: the reverse-splicing fitness is 0.00375. As for C82A A111G A120U C150A C169A, the reverse-splicing fitness was 0.00447. With C82A A111G A120U A145G U176C, the reverse-splicing fitness turned out to be 0.0165. Consider C82A A111G A120U A145G U176G, for which the reverse-splicing fitness came to 0.00317. As to C82A A111G A120U A145G U176A, the reverse-splicing fitness came out at 0.00959. Then C82A A111G A120U C150G C169U U176G, with 0.00249; and C82A A111G A120U C150G C169U U176A, with 0.00322; and C82A A111G A120U C150G C169U U176C, with 0.00511. For the variant C82A A111G A145G C150U U176A, the reverse-splicing fitness was determined as 0.115. Turning to C82A A111G A145G C150U U176C, the reverse-splicing fitness was determined as 0.174. Consider C82A A111G A145G C150U U176G, for which the reverse-splicing fitness worked out at 0.0317.

For C82A A111G A145C C150U C169A U176C, the reverse-splicing fitness was 0.00698.

C82A A111G A145C C150U C169A U176A: the reverse-splicing fitness is 0.0133. As for C82A A111G A145C C150U C169A U176G, the reverse-splicing fitness came to 0.00703.

On to C82A A111G A120U A145G C150U C169A, for which the reverse-splicing fitness was 0.00667. Turning to C82A A111G A120U A145G C150U C169G, the reverse-splicing fitness was found to be 0.00703. Regarding C82A A111G A120U A145G C150U C169U, the reverse-splicing fitness stood at 0.00572. On to C82A A111G A120U A145U C150U C169G, for which the reverse-splicing fitness was 0.00324. For C82A A111G A120U A145U C150U C169A, the reverse-splicing fitness stood at 0.00329. In the case of C82A A111G A120U A145U C150U C169U, the reverse-splicing fitness was determined as 0.00376.

For the variant C82A A111G A120U A145U C169G U176C, the reverse-splicing fitness was determined as 0.00235.

In the case of C82A A111G A120U A145U C169G U176G, the reverse-splicing fitness turned out to be 0.00177.

For C82A A111G A120U A145U C169G U176A, the reverse-splicing fitness is 0.00272.

For the variant C82A A111G A145G C150U C169G U176C, the reverse-splicing fitness stood at 0.0198.

Turning to C82A A111G A145G C150U C169G U176G, the reverse-splicing fitness was determined as 0.00644. With C82A A111G A145G C150U C169G U176A, the reverse-splicing fitness was 0.0156. For C82A A111G A145G C169G U176C, the reverse-splicing fitness came to 0.0288.

The values are drawn from the RNAGym collection of RNA variant scans (doi:10.1093/molbev/msab373).
